Laboratory results published in patent US20130012432A1 (Novo Nordisk, published 2013).
Positions of bridges follow the written chain, without caps; N, C: chain ends. Non-standard residues stand in square brackets, D forms with d. Groups on a side chain read outwards from the residue. Primed or numbered codes have the meaning given here. *: point of attachment. X2 = (2-(2-(16-(tetrazol-5-yl)hexadecanoylamino)ethoxy)ethoxy)acetyl, O=C(CCCCCCCCCCCCCCCc1nn[nH]n1)NCCOCCOCC(=O)*; X5 = NH(2-(2-(2-(17-carboxyheptadecanoylamino)ethoxy)ethoxy)ethyl), O=C(O)CCCCCCCCCCCCCCCCC(=O)NCCOCCOCCN*; biscarboxymethyl = Lys(biscarboxymethyl) = Nepsilon-bis(carboxymethyl)-L-lysine; bis(carboxymethyl) = Lys(biscarboxymethyl) = N6-bis(carboxymethyl)-L-lysine; Palmitoyl(16-(5-tetrazolyl)) = O=C(CCCCCCCCCCCCCCCc1nnn[nH]1)*; biscarboxymethyl(3) = Nepsilon-bis(carboxymethyl) on Lys; Lys(CH2CO2H)2 = N[C@@H](CCCCN(CC(=O)O)CC(=O)O)C(=O)O; C17 diacid = O=C(O)CCCCCCCCCCCCCCCC(=O)*; C16 diacid = O=C(O)CCCCCCCCCCCCCCC(=O)*; C14 diacid = O=C(O)CCCCCCCCCCCCC(=O)*; Hyp = O=C(O)[C@@H]1C[C@@H](O)CN1; NTA = O=C(O)CN(CC(=O)O)CC(=O)*; hCys = N[C@@H](CCS)C(=O)O; Orn = NCCC[C@H](N)C(=O)O; Dab = NCC[C@H](N)C(=O)O; Dap = NC[C@H](N)C(=O)O; AEEA = NCCOCCOCC(=O)O

B1: Ac-c[homoCys-His-D-Phe-Arg-Trp-Cys]-Pro-Pro-Lys-Asp-Dap(BCMA)-Lys[(2-{2-[16-(tetrazol-5-yl)hexadecanoylamino]ethoxy}ethoxy)acetyl]-OH (peptide)
peptide: Ac-[hCys]H[dF]RWCPPKD[Dap](NTA)K([AEEA-Palmitoyl(16-(5-tetrazolyl))])-OH
modifications: disulfide 1-6
SMILES: CC(=O)N[C@H]1CCSSC[C@@H](C(=O)N2CCC[C@H]2C(=O)N2CCC[C@H]2C(=O)N[C@@H](CCCCN)C(=O)N[C@@H](CC(=O)O)C(=O)N[C@@H](CNC(=O)CN(CC(=O)O)CC(=O)O)C(=O)N[C@@H](CCCCNC(=O)COCCOCCNC(=O)CCCCCCCCCCCCCCCc2nnn[nH]2)C(=O)O)NC(=O)[C@H](Cc2c[nH]c3ccccc23)NC(=O)[C@H](CCCNC(=N)N)NC(=O)[C@@H](Cc2ccccc2)NC(=O)[C@H](Cc2c[nH]cn2)NC1=O
B2: Ac-c[Cys-Glu-His-D-Phe-Arg-Trp-Cys]-Pro-Pro-Lys-Glu-Lys(biscarboxymethyl)-Lys[(2-{2-[16-(tetrazol-5-yl)hexadecanoylamino]ethoxy}ethoxy)acetyl]-NH2 (peptide)
peptide: Ac-CEH[dF]RWCPPKE[Lys(CH2CO2H)2]K([AEEA-Palmitoyl(16-(5-tetrazolyl))])-NH2
modifications: disulfide 1-7
SMILES: CC(=O)N[C@H]1CSSC[C@@H](C(=O)N2CCC[C@H]2C(=O)N2CCC[C@H]2C(=O)N[C@@H](CCCCN)C(=O)N[C@@H](CCC(=O)O)C(=O)N[C@@H](CCCCN(CC(=O)O)CC(=O)O)C(=O)N[C@@H](CCCCNC(=O)COCCOCCNC(=O)CCCCCCCCCCCCCCCc2nnn[nH]2)C(N)=O)NC(=O)[C@H](Cc2c[nH]c3ccccc23)NC(=O)[C@H](CCCNC(=N)N)NC(=O)[C@@H](Cc2ccccc2)NC(=O)[C@H](Cc2c[nH]cn2)NC(=O)[C@H](CCC(=O)O)NC1=O
B3: Ac-c[homoCys-His-D-Phe-Arg-Trp-Cys]-Pro-Pro-Lys-Asp-Dap(BCMA)-Lys({2-[2-(13-carboxytridecanoylamino)ethoxy]ethoxy}acetyl)-NH2 (peptide)
peptide: Ac-[hCys]H[dF]RWCPPKD[Dap](NTA)K([AEEA-C14 diacid])-NH2
modifications: disulfide 1-6
SMILES: CC(=O)N[C@H]1CCSSC[C@@H](C(=O)N2CCC[C@H]2C(=O)N2CCC[C@H]2C(=O)N[C@@H](CCCCN)C(=O)N[C@@H](CC(=O)O)C(=O)N[C@@H](CNC(=O)CN(CC(=O)O)CC(=O)O)C(=O)N[C@@H](CCCCNC(=O)COCCOCCNC(=O)CCCCCCCCCCCCC(=O)O)C(N)=O)NC(=O)[C@H](Cc2c[nH]c3ccccc23)NC(=O)[C@H](CCCNC(=N)N)NC(=O)[C@@H](Cc2ccccc2)NC(=O)[C@H](Cc2c[nH]cn2)NC1=O
B4: Ac-c[Lys-His-D-Phe-Arg-Trp-Asp]-Pro-Ser-Ser-Ser-Lys(biscarboxymethyl)-Ser-Ser-NH(2-{2-[2-(17-carboxyheptadecanoylamino)ethoxy]ethoxy}ethyl) (peptide)
peptide: Ac-KH[dF]RWDPSSS[Lys(CH2CO2H)2]SS-X5
modifications: lactam 1-6
SMILES: CC(=O)N[C@H]1CCCCNC(=O)C[C@@H](C(=O)N2CCC[C@H]2C(=O)N[C@@H](CO)C(=O)N[C@@H](CO)C(=O)N[C@@H](CO)C(=O)N[C@@H](CCCCN(CC(=O)O)CC(=O)O)C(=O)N[C@@H](CO)C(=O)N[C@@H](CO)C(=O)NCCOCCOCCNC(=O)CCCCCCCCCCCCCCCCC(=O)O)NC(=O)[C@H](Cc2c[nH]c3ccccc23)NC(=O)[C@H](CCCNC(=N)N)NC(=O)[C@@H](Cc2ccccc2)NC(=O)[C@H](Cc2c[nH]cn2)NC1=O
B5: Ac-c[Lys-His-D-Phe-Arg-Trp-Asp]-Pro-Pro-His-Glu-Glu-Ser-Ser-Glu-Lys({2-[2-(16-carboxyhexadecanoylamino)ethoxy]ethoxy}acetyl)-NH2 (peptide)
peptide: Ac-KH[dF]RWDPPHEESSEK([AEEA-C17 diacid])-NH2
modifications: lactam 1-6
SMILES: CC(=O)N[C@H]1CCCCNC(=O)C[C@@H](C(=O)N2CCC[C@H]2C(=O)N2CCC[C@H]2C(=O)N[C@@H](Cc2c[nH]cn2)C(=O)N[C@@H](CCC(=O)O)C(=O)N[C@@H](CCC(=O)O)C(=O)N[C@@H](CO)C(=O)N[C@@H](CO)C(=O)N[C@@H](CCC(=O)O)C(=O)N[C@@H](CCCCNC(=O)COCCOCCNC(=O)CCCCCCCCCCCCCCCC(=O)O)C(N)=O)NC(=O)[C@H](Cc2c[nH]c3ccccc23)NC(=O)[C@H](CCCNC(=N)N)NC(=O)[C@@H](Cc2ccccc2)NC(=O)[C@H](Cc2c[nH]cn2)NC1=O
B6: Ac-c[homoCys-His-D-Phe-Arg-Trp-Cys]-Pro-Pro-Lys-Asp-Lys(BCMA)-Lys[(2-{2-[16-(tetrazol-5-yl)hexadecanoylamino]ethoxy}ethoxy)acetyl]-NH2 (peptide)
peptide: Ac-[hCys]H[dF]RWCPPKDK(NTA)K([AEEA-Palmitoyl(16-(5-tetrazolyl))])-NH2
modifications: disulfide 1-6
SMILES: CC(=O)N[C@H]1CCSSC[C@@H](C(=O)N2CCC[C@H]2C(=O)N2CCC[C@H]2C(=O)N[C@@H](CCCCN)C(=O)N[C@@H](CC(=O)O)C(=O)N[C@@H](CCCCNC(=O)CN(CC(=O)O)CC(=O)O)C(=O)N[C@@H](CCCCNC(=O)COCCOCCNC(=O)CCCCCCCCCCCCCCCc2nnn[nH]2)C(N)=O)NC(=O)[C@H](Cc2c[nH]c3ccccc23)NC(=O)[C@H](CCCNC(=N)N)NC(=O)[C@@H](Cc2ccccc2)NC(=O)[C@H](Cc2c[nH]cn2)NC1=O
B7: Ac-c[Lys-His-D-Phe-Arg-Trp-Asp]-Pro-Pro-His-Glu-Lys(biscarboxymethyl)-Lys({2-[2-(16-carboxyhexadecanoylamino)ethoxy]ethoxy}acetyl)-NH2 (peptide)
peptide: Ac-KH[dF]RWDPPHE[Lys(CH2CO2H)2]K([AEEA-C17 diacid])-NH2
modifications: lactam 1-6
SMILES: CC(=O)N[C@H]1CCCCNC(=O)C[C@@H](C(=O)N2CCC[C@H]2C(=O)N2CCC[C@H]2C(=O)N[C@@H](Cc2c[nH]cn2)C(=O)N[C@@H](CCC(=O)O)C(=O)N[C@@H](CCCCN(CC(=O)O)CC(=O)O)C(=O)N[C@@H](CCCCNC(=O)COCCOCCNC(=O)CCCCCCCCCCCCCCCC(=O)O)C(N)=O)NC(=O)[C@H](Cc2c[nH]c3ccccc23)NC(=O)[C@H](CCCNC(=N)N)NC(=O)[C@@H](Cc2ccccc2)NC(=O)[C@H](Cc2c[nH]cn2)NC1=O
B8: Ac-c[Cys-Glu-His-D-Phe-Arg-Trp-Gly-Cys]-Pro-Pro-Lys-Glu-Lys(biscarboxymethyl)-Lys({2-[2-(15-carboxypentadecanoylamino)ethoxy]ethoxy}acetyl)-NH2 (peptide)
peptide: Ac-CEH[dF]RWGCPPKE[Lys(CH2CO2H)2]K([AEEA-C16 diacid])-NH2
modifications: disulfide 1-8
SMILES: CC(=O)N[C@H]1CSSC[C@@H](C(=O)N2CCC[C@H]2C(=O)N2CCC[C@H]2C(=O)N[C@@H](CCCCN)C(=O)N[C@@H](CCC(=O)O)C(=O)N[C@@H](CCCCN(CC(=O)O)CC(=O)O)C(=O)N[C@@H](CCCCNC(=O)COCCOCCNC(=O)CCCCCCCCCCCCCCC(=O)O)C(N)=O)NC(=O)CNC(=O)[C@H](Cc2c[nH]c3ccccc23)NC(=O)[C@H](CCCNC(=N)N)NC(=O)[C@@H](Cc2ccccc2)NC(=O)[C@H](Cc2c[nH]cn2)NC(=O)[C@H](CCC(=O)O)NC1=O
B9: Ac-c[homoCys-Gln-D-Phe-Arg-Trp-Cys]-Pro-Pro-Lys-Asp-Dap(BCMA)-Lys[(2-{2-[16-(tetrazol-5-yl)hexadecanoylamino]ethoxy}ethoxy)acetyl]-NH2 (peptide)
peptide: Ac-[hCys]Q[dF]RWCPPKD[Dap](NTA)K([AEEA-Palmitoyl(16-(5-tetrazolyl))])-NH2
modifications: disulfide 1-6
SMILES: CC(=O)N[C@H]1CCSSC[C@@H](C(=O)N2CCC[C@H]2C(=O)N2CCC[C@H]2C(=O)N[C@@H](CCCCN)C(=O)N[C@@H](CC(=O)O)C(=O)N[C@@H](CNC(=O)CN(CC(=O)O)CC(=O)O)C(=O)N[C@@H](CCCCNC(=O)COCCOCCNC(=O)CCCCCCCCCCCCCCCc2nnn[nH]2)C(N)=O)NC(=O)[C@H](Cc2c[nH]c3ccccc23)NC(=O)[C@H](CCCNC(=N)N)NC(=O)[C@@H](Cc2ccccc2)NC(=O)[C@H](CCC(N)=O)NC1=O
B10: Ac-c[homoCys-Hyp-D-Phe-Arg-Trp-Cys]-Pro-Pro-Lys-Asp-Dap(BCMA)-Lys[(2-{2-[16-(tetrazol-5-yl)hexadecanoylamino]ethoxy}ethoxy)acetyl]-NH2 (peptide)
peptide: Ac-[hCys][Hyp][dF]RWCPPKD[Dap](NTA)K([AEEA-Palmitoyl(16-(5-tetrazolyl))])-NH2
modifications: disulfide 1-6
SMILES: CC(=O)N[C@H]1CCSSC[C@@H](C(=O)N2CCC[C@H]2C(=O)N2CCC[C@H]2C(=O)N[C@@H](CCCCN)C(=O)N[C@@H](CC(=O)O)C(=O)N[C@@H](CNC(=O)CN(CC(=O)O)CC(=O)O)C(=O)N[C@@H](CCCCNC(=O)COCCOCCNC(=O)CCCCCCCCCCCCCCCc2nnn[nH]2)C(N)=O)NC(=O)[C@H](Cc2c[nH]c3ccccc23)NC(=O)[C@H](CCCNC(=N)N)NC(=O)[C@@H](Cc2ccccc2)NC(=O)[C@@H]2C[C@@H](O)CN2C1=O

target: T1, human MC4 receptor (human, UniProt P32245 1-332); assay: 125I-NDP-α-MSH displacement, BHK-human MC4 membranes (Assay V);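 note: Filter-retained radioactivity read by gamma counting, with affinity obtained through non-linear regression fitting of the binding curves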
T1 construct: whole, on cells; Assayed as membranes of BHK cells stably expressing the receptor; also called melanocortin receptor subtype 4; melanocortin receptor 4
T1 sequence (P32245 whole entry): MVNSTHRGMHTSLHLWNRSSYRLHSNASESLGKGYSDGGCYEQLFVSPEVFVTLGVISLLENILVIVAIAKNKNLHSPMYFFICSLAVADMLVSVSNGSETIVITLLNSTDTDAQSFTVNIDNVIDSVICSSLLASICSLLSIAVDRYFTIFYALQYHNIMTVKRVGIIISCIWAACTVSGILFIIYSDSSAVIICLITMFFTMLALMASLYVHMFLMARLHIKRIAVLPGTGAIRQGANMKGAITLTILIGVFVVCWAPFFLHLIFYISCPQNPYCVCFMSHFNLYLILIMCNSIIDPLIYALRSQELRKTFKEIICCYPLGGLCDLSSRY
Procedure: The membranes were prepared from frozen or fresh cells that were homogenized in 20 mM HEPES pH 7.1, 5 mM MgCl₂ and 1 mg/ml bacitracin and centrifuged at 15000 rpm at 4° C., 10 min in a Sorvall RC 5B plus, SS-34 rotor. The supernatant was discarded, and the pellets were re-suspended in buffer, homogenized and centrifuged two more times. The final pellets were resuspended in the buffer mentioned above, and the protein concentration was measured and adjusted with buffer to 14 to 17 mg/ml and the membrane preparation were kept at −80° C. until assay. The assay was run directly on a dilution of this cell membrane suspension, without any further preparation. The BHK cell membranes are kept at −80° C. until assay, and the assay is run directly on a dilution of this cell membrane suspension, without further preparation. The suspension is diluted to give maximally 10% specific binding, i.e. to approx. 50-100 fold dilution. […] Test compounds were dissolved in DMSO and diluted in binding buffer. Radiolabelled ligand and membranes were diluted in binding buffer. The incubation was stopped by dilution with 2×100 μl ice-cold 0.9% NaCl. The radioactivity retained on the filters was counted using a Cobra II auto gamma counter.
The data were analysed by non-linear regression analysis of binding curves, using the Windows™ program GraphPad™ Prism (GraphPad Software, USA).

Going from B1 to B2, the Ki rises from 6.4 nM to 15 nM (2.3-fold). The first binds more tightly here.

First: B3
Second: B4
The Ki of the first is 1.5-fold higher: 4.2 nM for the first, 2.75 nM for the second.

Going from B5 to Ac-[hCys]H[dF]RWCPPKEK(bis(carboxymethyl))K([AEEA-C16 diacid])-NH2 (disulfide 1-6), the Ki falls from 30 nM to 17 nM (1.8-fold).

Compared with B6, Ac-[hCys]H[dF]RWCPPSEK(bis(carboxymethyl))K([AEEA-C16 diacid])-NH2 (disulfide 1-6) is 180-fold higher in Ki: 0.4 nM for the first, 70 nM for the second.

Going from Ac-[Dab]H[dF]RWDPPREK(biscarboxymethyl(3))K([AEEA-Palmitoyl(16-(5-tetrazolyl))])-NH2 (lactam 1-6) to Ac-[Orn]H[dF]RWDPPHEK(biscarboxymethyl)K(X2)-NH2 (lactam 1-6), the Ki falls from 8.45 nM to 1.43 nM (5.9-fold). The second binds more tightly here.

Compared with Ac-[Dab]H[dF]RWEPPRDK(biscarboxymethyl(3))K([AEEA-Palmitoyl(16-(5-tetrazolyl))])-NH2 (lactam 1-6), Ac-[Orn]H[dF]RWEPPHEK(bis(carboxymethyl))K([AEEA-C17 diacid])-NH2 (lactam 1-6) is 5-fold lower in Ki: 107 nM for the first, 21.5 nM for the second.

First: Ac-[Dab]H[dF]RWDPPHEK(biscarboxymethyl(3))K([AEEA-Palmitoyl(16-(5-tetrazolyl))])-NH2 (lactam 1-6)
Second: B7
The Ki of the first is 4.5-fold higher: 76 nM for the first, 17 nM for the second. The second binds more tightly here.

First: Ac-[Orn]H[dF]RWEPSSSK(bis(carboxymethyl))SSK([AEEA-C17 diacid])-NH2 (lactam 1-6)
Second: B8
The Ki of the first is 8.7-fold lower: 6.35 nM for the first, 55 nM for the second.

Going from Ac-EH[dF]RW[Dap]PPRDK(biscarboxymethyl(3))K([AEEA-Palmitoyl(16-(5-tetrazolyl))])-NH2 (lactam 1-6) to Ac-DH[dF]RW[Dap]PPRDK(biscarboxymethyl(3))K([AEEA-Palmitoyl(16-(5-tetrazolyl))])-NH2 (lactam 1-6), the Ki rises from 13 nM to 71.5 nM (5.5-fold).

Compared with B9, B10 is 1.7-fold lower in Ki: 1.06 nM for the first, 0.62 nM for the second. The second binds more tightly here.
